Reference: publication PMC11791182, “Molecular mechanism targeting condensin for chromosome condensation” (The EMBO Journal, 2024)

B1: GFP-Sgo1 (472-530) [S. cerevisiae] / Ycg1 (6–932, Δ499–555)-Brn1 (384–529) [S. cerevisiae] (parent complex)
chain 1: KNEKKLTSNNSPKKSSPLLDITNKSENKKKSTRTKKLFKNAIVNNLSDENSTTRPSKSS
chain 2: GIDINTKIFNSVAEVFQKAQGSYAGHRKHIAVLKKIQSKAVEQGYEDAFNFWFDKLVTKILPLKKNEIIGDRIVKLVAAFIASLERELILAKKQNYKLTNDEEGIFSRFVDQFIRHVLRGVESPDKNVRFRVLQLLAVIMDNIGEIDESLFNLLILSLNKRIYDREPTVRIQAVFCLTKFQDEEQTEHLTELSDNEENFEATRTLVASIQNDPSAEVRRAAMLNLINDNNTRPYILERARDVNIVNRRLVYSRILKSMGRKCFDDIEPHIFDQLIEWGLEDRELSVRNACKRLIAHDWLNALDGDLIELLEKLDVSRSSVCVKAIEALFQSRPDILSKIKFPESIWKDFTVEIAFLFRAIYLYCLDNNITEMLEENFPEASKLSEHLNHYILLRYHHNDISNDSQSHFDYNTLEFIIEQLSIAAERYDYSDEVGRRSMLTVVRNMLALTTLSEPLIKIGIRVMKSLSINEKDFVTMAIEIINDIRDDDIEKQESESDIINNLPPEKEASSATIVLCLTRSSYMLELVNTPLTENILIASLMDTLITPAVRNTAPNIRELGVKNLGLCCLLDVKLAIDNMYILGMCVSKGNASLKYIALQVIVDIFSVHGNTVVDGEGKVDSISLHKIFYKVLKNNGLPECQVIAAEGLCKLFLADVFTDDDLFETLVLSYFSPINSSNEALVQAFAFCIPVYCFSHPAHQQRMSRTAADILLRLCVLWDDLQSSVIPEVDREAMLKPNIIFQQLLFWTDPRNLVNQTGSTKKDTVQLTFLIDVLKIYAQIEKKEIKKMIITNINAIFLSSEQDYSTLKELLEYSDDIAENDNLDNVSKNALDKLRNNLNSLIEEINERSETQTKDENNTANDQYSSILGN
chain 3: SIFEKDLMAYFDENLNRNWRGREHWKVRNFKKANLVNKESDLLEETRTTIGDTTDKNTTDDKSMDTKKKHKQKKVLEIDFFKTDDSFEDKVFASKGRTKIDMPIKNRKNDTHYLLPDDFHFSTDRITRLFIKPGQKMSLFSHRKHT

Variants of: B1
Test: co-immunoprecipitation (anti-GFP-coupled beads), silver-stained SDS-PAGE band quantification; 25 mM HEPES pH 7.5, 500 mM NaCl, 10% glycerol, 1 mM DTT, 0.1% NP-40; 2.5 h incubation; parent: 1; read off a plot

| Variant | ratio to parent |
| --- | --- |
| chain 1 I42E, chain 1 V43E | ~0.51 |
| chain 1 L46E | ~0.66 |
| chain 1 L37E, chain 1 F38E, chain 1 I42E, chain 1 V43E, chain 1 L46E | ~0.84 |
| chain 1 L37E, chain 1 F38E, chain 1 I42E, chain 1 V43E | ~0.54 |
| chain 1 L37E, chain 1 F38E | ~0.37 |
